The source of these data is patent US20160136234A1.

Some targets named below: PAK2 (h) (human) (UniProt Q13177); MuSK (h) (human) (UniProt O15146); Pim-3 (h) (human) (UniProt Q86V86); cKit(V654A) (h) (human) (UniProt P10721); Pyk2 (h) (human) (UniProt Q14289); Plk3 (h) (human) (UniProt Q9H4B4); EphA4 (h) (human) (UniProt P54764); ROCK-I (h) (human) (UniProt Q13464); FGFR4 (h) (human) (UniProt P22455); SAPK2b (h) (human) (UniProt Q15759); JNK1α1 (h) (human) (UniProt P45983); CHK2(R145W) (h) (human) (UniProt O96017); Abl (M351T) (h) (human) (UniProt P00519); GSK3α (h) (human) (UniProt P49840); JNK2α2 (h) (human) (UniProt P45984); MSSK1 (h) (human) (UniProt Q9UPE1).

Common to all, as to test: cell-based or functional assay
In the next experiment the target is T1, EphA1 (h) (human) (UniProt P21709).
T1 sequence (looked up): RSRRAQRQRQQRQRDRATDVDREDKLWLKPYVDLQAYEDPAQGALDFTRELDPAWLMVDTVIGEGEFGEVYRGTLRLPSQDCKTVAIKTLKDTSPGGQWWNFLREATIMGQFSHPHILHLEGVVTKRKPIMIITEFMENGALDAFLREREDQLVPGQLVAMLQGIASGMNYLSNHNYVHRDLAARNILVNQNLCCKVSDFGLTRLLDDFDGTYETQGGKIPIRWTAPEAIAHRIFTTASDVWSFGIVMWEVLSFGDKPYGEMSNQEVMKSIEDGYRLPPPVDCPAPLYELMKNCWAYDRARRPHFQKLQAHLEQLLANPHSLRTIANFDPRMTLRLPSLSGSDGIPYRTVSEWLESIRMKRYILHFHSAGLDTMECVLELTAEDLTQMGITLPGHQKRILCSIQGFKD

Another experiment concerns the target T2, TBK1 (h) (human) (UniProt Q9UHD2).
T2 sequence (looked up): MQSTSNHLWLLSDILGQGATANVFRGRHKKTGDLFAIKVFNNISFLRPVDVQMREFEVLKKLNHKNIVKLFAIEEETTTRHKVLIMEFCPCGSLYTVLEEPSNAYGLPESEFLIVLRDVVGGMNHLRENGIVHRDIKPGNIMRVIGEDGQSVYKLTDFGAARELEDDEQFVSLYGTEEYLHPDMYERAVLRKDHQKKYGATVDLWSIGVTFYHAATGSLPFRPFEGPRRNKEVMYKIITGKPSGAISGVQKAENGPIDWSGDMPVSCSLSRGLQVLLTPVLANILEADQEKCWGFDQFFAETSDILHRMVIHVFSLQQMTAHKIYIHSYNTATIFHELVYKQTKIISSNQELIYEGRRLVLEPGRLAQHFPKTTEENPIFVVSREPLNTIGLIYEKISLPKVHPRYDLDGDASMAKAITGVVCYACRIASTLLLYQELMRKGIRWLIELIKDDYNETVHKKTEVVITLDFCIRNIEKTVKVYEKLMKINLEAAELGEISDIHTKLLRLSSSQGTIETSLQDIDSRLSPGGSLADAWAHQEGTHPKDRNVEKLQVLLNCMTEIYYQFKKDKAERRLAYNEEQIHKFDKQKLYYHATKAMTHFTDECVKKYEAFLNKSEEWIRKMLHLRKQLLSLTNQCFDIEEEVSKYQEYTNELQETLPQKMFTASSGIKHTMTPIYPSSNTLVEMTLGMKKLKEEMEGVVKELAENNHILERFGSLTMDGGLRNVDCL

The target of the next experiment is T3, Flt1 (h) (human) (UniProt P17948).
T3 sequence (looked up): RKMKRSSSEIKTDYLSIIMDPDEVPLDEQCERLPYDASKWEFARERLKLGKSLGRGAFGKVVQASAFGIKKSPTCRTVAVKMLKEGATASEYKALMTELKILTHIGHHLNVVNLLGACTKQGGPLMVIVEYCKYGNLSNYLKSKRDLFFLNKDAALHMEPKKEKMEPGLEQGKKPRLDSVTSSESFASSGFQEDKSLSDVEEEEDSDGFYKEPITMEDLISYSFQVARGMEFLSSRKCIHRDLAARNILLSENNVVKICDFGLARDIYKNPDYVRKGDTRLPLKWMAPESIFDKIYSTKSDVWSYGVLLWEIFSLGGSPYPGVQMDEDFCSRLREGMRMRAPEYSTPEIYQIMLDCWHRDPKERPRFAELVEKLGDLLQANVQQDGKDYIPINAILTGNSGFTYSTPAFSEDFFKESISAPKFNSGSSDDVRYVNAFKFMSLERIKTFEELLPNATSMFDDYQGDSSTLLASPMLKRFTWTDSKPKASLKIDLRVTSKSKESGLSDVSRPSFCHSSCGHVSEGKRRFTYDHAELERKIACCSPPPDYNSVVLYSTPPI

Another experiment addresses T4, Mer (h) (human) (UniProt Q12866).
T4 sequence (looked up): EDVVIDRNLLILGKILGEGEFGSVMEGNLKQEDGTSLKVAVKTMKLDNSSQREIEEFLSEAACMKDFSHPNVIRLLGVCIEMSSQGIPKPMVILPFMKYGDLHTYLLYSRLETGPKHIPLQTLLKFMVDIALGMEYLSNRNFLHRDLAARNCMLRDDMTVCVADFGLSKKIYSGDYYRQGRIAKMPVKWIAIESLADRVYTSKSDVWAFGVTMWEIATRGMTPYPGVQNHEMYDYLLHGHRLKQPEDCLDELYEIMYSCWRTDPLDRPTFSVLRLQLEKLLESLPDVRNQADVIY

Experiment [1] addresses EGFR(T790M, L858R) (h) (human) (UniProt P00533).

Chain of Abl (M351T) (h) (human) (P00519 27-1130 M351T limits assumed): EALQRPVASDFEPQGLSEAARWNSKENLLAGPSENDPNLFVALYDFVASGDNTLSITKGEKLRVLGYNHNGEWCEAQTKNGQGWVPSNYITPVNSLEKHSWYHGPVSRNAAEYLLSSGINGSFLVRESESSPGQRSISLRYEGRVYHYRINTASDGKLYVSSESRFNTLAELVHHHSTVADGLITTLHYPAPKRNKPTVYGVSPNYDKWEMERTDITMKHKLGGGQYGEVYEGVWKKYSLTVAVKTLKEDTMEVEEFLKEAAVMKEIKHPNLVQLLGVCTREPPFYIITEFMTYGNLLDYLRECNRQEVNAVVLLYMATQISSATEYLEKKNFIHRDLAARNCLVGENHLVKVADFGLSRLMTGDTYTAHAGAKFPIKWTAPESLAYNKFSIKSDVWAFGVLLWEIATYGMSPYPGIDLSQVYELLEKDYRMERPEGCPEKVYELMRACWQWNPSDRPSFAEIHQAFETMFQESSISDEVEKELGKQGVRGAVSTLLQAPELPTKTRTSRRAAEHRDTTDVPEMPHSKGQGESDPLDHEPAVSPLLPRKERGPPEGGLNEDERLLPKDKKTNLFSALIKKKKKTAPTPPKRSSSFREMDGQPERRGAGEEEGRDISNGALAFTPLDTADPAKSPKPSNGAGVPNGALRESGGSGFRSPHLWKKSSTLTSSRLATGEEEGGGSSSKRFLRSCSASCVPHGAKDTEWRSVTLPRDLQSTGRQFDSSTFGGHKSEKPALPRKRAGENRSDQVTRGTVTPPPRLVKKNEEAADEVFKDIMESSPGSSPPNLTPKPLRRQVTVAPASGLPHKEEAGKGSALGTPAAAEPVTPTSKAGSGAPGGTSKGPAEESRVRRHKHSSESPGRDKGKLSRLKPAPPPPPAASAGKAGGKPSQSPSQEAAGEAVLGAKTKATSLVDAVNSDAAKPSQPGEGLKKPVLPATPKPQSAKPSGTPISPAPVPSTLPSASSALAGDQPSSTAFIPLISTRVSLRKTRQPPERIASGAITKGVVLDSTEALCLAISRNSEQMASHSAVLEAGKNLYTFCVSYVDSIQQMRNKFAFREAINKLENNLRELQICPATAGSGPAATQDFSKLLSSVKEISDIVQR
Chain of EphA4 (h) (human) (P54764 570-986 limits assumed): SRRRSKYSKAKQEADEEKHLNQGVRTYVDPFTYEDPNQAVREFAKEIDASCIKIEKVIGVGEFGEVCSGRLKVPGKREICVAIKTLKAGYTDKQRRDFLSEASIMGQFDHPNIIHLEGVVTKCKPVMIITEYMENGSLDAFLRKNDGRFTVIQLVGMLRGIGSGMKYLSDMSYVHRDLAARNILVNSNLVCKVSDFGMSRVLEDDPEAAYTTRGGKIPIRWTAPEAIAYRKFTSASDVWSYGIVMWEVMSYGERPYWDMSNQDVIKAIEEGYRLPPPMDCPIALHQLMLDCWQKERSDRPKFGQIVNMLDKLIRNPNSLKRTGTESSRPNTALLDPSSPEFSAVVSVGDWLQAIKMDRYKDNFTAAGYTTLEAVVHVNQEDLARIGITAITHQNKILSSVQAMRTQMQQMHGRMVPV
Chain of FGFR4 (h) (human) (P22455 460-802 limits assumed): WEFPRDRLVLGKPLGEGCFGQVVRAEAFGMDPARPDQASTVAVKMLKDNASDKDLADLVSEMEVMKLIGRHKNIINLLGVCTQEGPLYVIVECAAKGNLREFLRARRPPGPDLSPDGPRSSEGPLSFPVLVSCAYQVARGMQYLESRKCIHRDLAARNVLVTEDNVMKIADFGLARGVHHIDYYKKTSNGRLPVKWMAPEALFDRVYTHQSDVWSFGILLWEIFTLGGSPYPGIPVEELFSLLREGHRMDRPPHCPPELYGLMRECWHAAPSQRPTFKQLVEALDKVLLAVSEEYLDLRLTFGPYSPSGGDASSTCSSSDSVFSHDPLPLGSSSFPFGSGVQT
Chain of CHK2(R145W) (h) (human) (O96017 5-543 R145W limits assumed): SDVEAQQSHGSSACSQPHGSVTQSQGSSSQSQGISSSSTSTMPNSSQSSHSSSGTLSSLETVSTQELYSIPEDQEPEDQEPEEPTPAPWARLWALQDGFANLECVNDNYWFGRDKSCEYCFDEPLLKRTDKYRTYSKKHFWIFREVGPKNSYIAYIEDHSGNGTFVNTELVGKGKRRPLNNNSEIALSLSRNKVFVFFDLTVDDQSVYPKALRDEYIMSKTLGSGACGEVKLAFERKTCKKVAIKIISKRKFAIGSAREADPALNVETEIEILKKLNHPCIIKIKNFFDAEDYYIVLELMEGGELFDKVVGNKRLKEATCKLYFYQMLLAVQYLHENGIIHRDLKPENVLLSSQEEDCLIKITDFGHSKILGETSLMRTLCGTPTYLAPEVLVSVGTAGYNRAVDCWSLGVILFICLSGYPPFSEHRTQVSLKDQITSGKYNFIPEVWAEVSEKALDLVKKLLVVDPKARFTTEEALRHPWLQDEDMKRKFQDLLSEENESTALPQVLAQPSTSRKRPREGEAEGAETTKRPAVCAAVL
Chain of SAPK2b (h) (human) (Q15759 whole entry): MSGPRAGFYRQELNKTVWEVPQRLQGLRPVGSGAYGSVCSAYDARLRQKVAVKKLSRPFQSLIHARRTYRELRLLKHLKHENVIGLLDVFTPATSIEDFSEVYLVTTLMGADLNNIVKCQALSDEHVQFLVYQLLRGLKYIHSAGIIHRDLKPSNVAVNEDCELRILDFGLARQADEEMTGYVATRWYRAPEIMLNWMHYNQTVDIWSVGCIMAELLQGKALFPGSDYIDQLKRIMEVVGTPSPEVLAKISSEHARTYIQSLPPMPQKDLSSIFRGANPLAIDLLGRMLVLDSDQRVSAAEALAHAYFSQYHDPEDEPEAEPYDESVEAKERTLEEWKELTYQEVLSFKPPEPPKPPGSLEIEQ
Chain of PAK2 (h) (human) (Q13177 whole entry): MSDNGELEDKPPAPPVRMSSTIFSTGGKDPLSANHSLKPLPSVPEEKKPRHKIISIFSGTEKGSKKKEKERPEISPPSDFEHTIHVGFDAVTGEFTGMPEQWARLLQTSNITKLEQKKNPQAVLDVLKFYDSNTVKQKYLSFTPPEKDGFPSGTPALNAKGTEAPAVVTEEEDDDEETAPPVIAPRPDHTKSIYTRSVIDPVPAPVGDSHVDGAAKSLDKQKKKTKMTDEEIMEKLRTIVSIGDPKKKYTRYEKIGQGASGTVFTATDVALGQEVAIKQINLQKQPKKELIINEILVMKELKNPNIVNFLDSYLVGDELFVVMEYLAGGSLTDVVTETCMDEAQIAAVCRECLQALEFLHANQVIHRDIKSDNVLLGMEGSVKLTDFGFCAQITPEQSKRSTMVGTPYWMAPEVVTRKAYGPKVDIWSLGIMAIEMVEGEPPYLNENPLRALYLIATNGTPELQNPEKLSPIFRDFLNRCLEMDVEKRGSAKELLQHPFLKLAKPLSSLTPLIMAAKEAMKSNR
Chain of cKit(V654A) (h) (human) (P10721 544-976 V654A): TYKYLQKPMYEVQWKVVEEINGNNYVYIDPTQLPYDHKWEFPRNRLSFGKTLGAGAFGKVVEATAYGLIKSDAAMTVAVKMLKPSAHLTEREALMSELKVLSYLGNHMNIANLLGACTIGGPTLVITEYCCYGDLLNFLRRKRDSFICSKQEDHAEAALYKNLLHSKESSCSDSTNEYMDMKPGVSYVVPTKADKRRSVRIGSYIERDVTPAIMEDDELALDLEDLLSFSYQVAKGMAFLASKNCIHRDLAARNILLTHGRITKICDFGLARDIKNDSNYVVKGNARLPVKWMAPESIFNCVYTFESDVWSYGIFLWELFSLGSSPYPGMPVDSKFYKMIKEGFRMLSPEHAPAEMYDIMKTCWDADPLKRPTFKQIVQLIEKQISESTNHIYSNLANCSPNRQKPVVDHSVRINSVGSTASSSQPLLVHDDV

Take MMI-0300 (peptide): the % activity at 100 µM turned out to be 65% with PAK2 (h) (human); 73% with EphA1 (h) (human); 93% with MuSK (h) (human); 80% in the experiment with Pim-3 (h) (human); 134% with cKit(V654A) (h) (human); 47% with Pyk2 (h) (human). For the same substance, the % activity at 100 µM with TBK1 (h) (human) is 37%; in the experiment with Plk3 (h) (human) it was 127%; in the experiment with Flt1 (h) (human), 69%; with EphA4 (h) (human), 88%; in the experiment with ROCK-I (h) (human), 79%; with Mer (h) (human) it was 52%. Also, the % activity at 100 µM with FGFR4 (h) (human) stood at 28%; with SAPK2b (h) (human), 81%; with JNK1α1 (h) (human) it was 97%; in the experiment with CHK2(R145W) (h) (human), 33%; with Abl (M351T) (h) (human) it was 90%; with GSK3α (h) (human), 157%. The values for the % activity at 100 µM (in experiment [1]; in the experiment with JNK2α2 (h) (human); with MSSK1 (h) (human)) were 85%, 98% and 77%, respectively.
